Assay results as given in US20250250357A1 (NANJING ZAIMING PHARMACEUTICAL, published 2025).
Like-named read-outs stand apart in the source and are kept apart here.

T1: human MSLN-R1-his protein (human, UniProt Q13421 296-390)
T1 construct: Region 1 of human MSLN, His-tagged; also called human MSLN-R1 protein; hMSLN-R1-his; not shown: His tag
T1 chain: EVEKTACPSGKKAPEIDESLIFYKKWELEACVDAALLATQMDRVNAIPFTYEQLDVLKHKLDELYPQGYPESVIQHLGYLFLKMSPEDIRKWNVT


Experiments:
[1] = molecular target: T2, human MSLN-FL-his protein (human, UniProt Q13421 296-580); assay: SPR (Biacore), antibody captured on Protein A chip
T2 construct: made in HEK293E cells, purified on nickel column; also called hMSLN-FL-his; human MSLN full-length protein; not shown: His tag
T2 sequence (Q13421 other isoform, or with tags, fused parts or gaps): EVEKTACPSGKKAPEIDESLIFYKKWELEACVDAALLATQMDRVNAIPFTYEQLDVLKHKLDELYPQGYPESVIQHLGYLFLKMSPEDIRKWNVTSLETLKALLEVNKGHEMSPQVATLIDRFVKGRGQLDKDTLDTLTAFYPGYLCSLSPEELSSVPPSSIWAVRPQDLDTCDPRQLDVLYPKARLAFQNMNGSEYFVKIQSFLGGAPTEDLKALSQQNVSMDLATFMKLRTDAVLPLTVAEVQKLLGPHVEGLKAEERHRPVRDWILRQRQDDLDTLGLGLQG

[2] = molecular target: T3, human MSLN-FL-his protein (human, UniProt Q13421 296-580); assay: ELISA, coated MSLN full-length;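 also: binding of chimeric antibodies to plate-bound antigen, read by TMB colour after acid stop, antibody incubated 2 h at 37 °C, negative control antibody run alongside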
T3 construct: also called human MSLN full-length protein; hMSLN-FL-his; not shown: His tag

[3] = molecular target: T1, human MSLN-R1-his protein; assay: ELISA, coated MSLN-R1;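 also: serially diluted chimeric antibodies bound to the coated, BSA-blocked plate for 2 h at 37 °C, with TMB colour read after acid stop and a negative control antibody alongside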
Protocol: The plate was sealed with a plastic film and incubated at 4° C. overnight. The next day, the plate was washed twice with PBST, and a blocking buffer [PBS+2% (w/w) BSA] was added for blocking at room temperature for 2 h. The blocking buffer was discarded, and a chimeric antibody or negative control antibody serially diluted from 100 nM was added at 50 μL/well. After incubation at 37° C. for 2 h, the plate was washed 3 times with PBST. […] After incubation at 37° C. for 2 h, the plate was washed 5 times with PBST. A TMB substrate was added at 50 μL/well for incubation at room temperature for 5-10 min, and then a stop solution (1.0 N HCl) was added at 50 μL/well.

[4] = molecular target: T2, human MSLN-FL-his protein; assay: SPR (Biacore), antibody captured on Protein A chip; remark: listed apart in the source
Protocol: The flow cell was set at 25° C. The sample block was set at 16° C. Both were pretreated with the running buffer. In each cycle, first, the antibody to be tested was captured using the Protein A chip, and then a single concentration of human MSLN-FL-his protein was injected. […] The association was determined by injecting different concentrations of human MSLN-FL-his in solution for 240 s on end, wherein the flow rate was 30 μL/min, and the protein was diluted in a 1:1 dilution ratio from 200 nM (see detailed results for actual concentrations tested) to obtain 5 concentrations in total. The dissociation phase was monitored for up to 600 s and triggered by switching from the sample solution to the running buffer. The surface was regenerated by washing with 10 mM glycine solution (pH 1.5) at a flow rate of 30 μL/min for 30 s. The difference in bulk refractive index was corrected by subtracting the responses obtained from the goat anti-human Fc surface. Blank injections were also subtracted (=double reference). To calculate the apparent KD and other kinetic parameters, the Langmuir 1:1 model was used.

Row | Binder | Kd [1] [nM] | koff [1] [s⁻¹] | kon [1] [M⁻¹ s⁻¹] | OD450 at 0.0001 nM [2] [OD450] | OD450 at 0.001 nM [2] [OD450] | OD450 at 0.01 nM [2] [OD450] | OD450 at 0.1 nM [2] [OD450] | OD450 at 1 nM [2] [OD450] | OD450 at 10 nM [2] [OD450] | OD450 at 100 nM [2] [OD450] | OD450 at none (no antibody) [2] [OD450] | other results
1 | S009-F1.7.14 (antibody, human IgG1, kappa, human-murine chimeric antibody, human IgG1/kappa constant regions) heavy: not shown light: QIVLTQSPAIMSASPGEKVTISCSASSSVSYMYWYQQKPGSSPKPWISRTSNLASGVPARFSGSGSGTSYSLTISSMEAEDAATYYCQQYHSYPPTLGAGTKLELKRTVAAPSVFIFPPSDEQLKSGTASVVCLLNNFYPREAKVQWKVDNALQSGNSQESVTEQDSKDSTYSLSSTLTLSKADYEKHKVYACEVTHQGLSSPVTKSFNRGEC | 12.8 | 0.00709 | 553000 |  |  |  |  |  |  |  |  | 
2 | S009-F1.25.10 (antibody, human IgG1, kappa, V domains shown, human-murine chimeric antibody, human IgG1/kappa constant regions) VH: EVQLQQSGPELVKPGASLKISCKASGYSFTDYTMNWVKQSHGKNLEWIGLFNPYNGGISYNQKFKGKATLTVDKSSNTAYMELLSLTSDDSAVYFCARDGRGGFYAMDYWGQGTSVTVSS VL: DIQMTQTTSSLSASLGDRVTISCRASQDISIYLNWYQQKPDGPVKLLIYYTSRLHSGVPSRFSGSGSGTDFSLTISNLEQEDIATYFCQQGYTLPPWTFGGGTKLEIKR | 186 | 0.00067 | 3600 |  |  |  |  |  |  |  |  | 
3 | S009-F2.38.12 (antibody, human IgG1, kappa, V domains shown, Human-murine chimeric antibody, human IgG1/kappa constant regions) VH: QVQLQQPGTELVKPGASVKLSCKASGYTFTSYWMHWVKQRPGQGLEWIGNINPSNGGTNYNEKIKNKATLTVDKSSSTAYMQLSSLTSEDSAVYYCARWNYYGNYPFDYWGQGTTLTVSS VL: DIVMTQSQKFMSTTVGDRVSITCKASQNVGTAVAWYQQKPGQSPKLLIYSASNRYTGVPDRFTGSGSGTDFTLTISNMQSEDLADYFCQQYSSYPLTFGAGTKLELKR |  |  |  | 0.06 | 0.09 | 0.46 | 1.85 | 2.56 | 2.43 | 2.57 | 0.06 | 
4 | S009-F2.38.12 (antibody, human IgG1, kappa, V domains shown, human-murine chimeric antibody, human IgG1/kappa constant regions) VH: QVQLQQPGTELVKPGASVKLSCKASGYTFTSYWMHWVKQRPGQGLEWIGNINPSNGGTNYNEKIKNKATLTVDKSSSTAYMQLSSLTSEDSAVYYCARWNYYGNYPFDYWGQGTTLTVSS VL: DIVMTQSQKFMSTTVGDRVSITCKASQNVGTAVAWYQQKPGQSPKLLIYSASNRYTGVPDRFTGSGSGTDFTLTISNMQSEDLADYFCQQYSSYPLTFGAGTKLELKR | 30.8 | 0.0109 | 354000 |  |  |  |  |  |  |  |  | 
5 | S009-F2.21.4 (antibody, human IgG1, kappa, V domains shown, Human-murine chimeric antibody, human IgG1/kappa constant regions) VH: EVQLQQSGPELVKPGASVKIPCKASGYTFTDYNMDWVKQSHGKSLEWIGDINPNNGGSIYNQRFKGKATLTVDKSSSTAYMELRSLTSEDSAVYYCARRAYYSTGYFDVWGTGTTVTVSS VL: QIVLTQSPALMSASPGEKVTITCSASSSISYMHWFQQKPGTSPKLWIYSTSTLASGVPARFSGSGSGTSYSLTISRMEAEDTATYYCQQRSSYPPTFGGGTKLEIKR |  |  |  | 0.05 | 0.09 | 0.41 | 1.93 | 2.46 | 2.56 | 2.95 | 0.06 | OD450 at 0.0001 nM [3]: 0.05 OD450; OD450 at 0.001 nM [3]: 0.05 OD450; OD450 at 0.01 nM [3]: 0.05 OD450; OD450 at 0.1 nM [3]: 0.05 OD450; OD450 at 1 nM [3]: 0.05 OD450; OD450 at 10 nM [3]: 0.05 OD450; OD450 at 100 nM [3]: 0.06 OD450; OD450 at none (no antibody) [3]: 0.06 OD450
6 | S009-F2.21.4 (antibody, human IgG1, kappa, V domains shown, human-murine chimeric antibody, human IgG1/kappa constant regions) VH: EVQLQQSGPELVKPGASVKIPCKASGYTFTDYNMDWVKQSHGKSLEWIGDINPNNGGSIYNQRFKGKATLTVDKSSSTAYMELRSLTSEDSAVYYCARRAYYSTGYFDVWGTGTTVTVSS VL: QIVLTQSPALMSASPGEKVTITCSASSSISYMHWFQQKPGTSPKLWIYSTSTLASGVPARFSGSGSGTSYSLTISRMEAEDTATYYCQQRSSYPPTFGGGTKLEIKR | 29.1 | 0.0227 | 780000 |  |  |  |  |  |  |  |  | 
7 | S009-F1.59.1 (antibody, human IgG1, kappa, V domains shown, human-murine chimeric antibody, human IgG1/kappa constant regions) VH: EVKLEGSGGGLVQPGGSMMLSCVATGFTFSSYWMNWVRQSPDRGLEWVAEIRLKSNGFAAFYAESVKGRFTISRDDSKSSVYLQMNNLRTEDTGIYYCTYFVHWGQGILVTVSE VL: DIVLTQSPTSLAVSLGQRATISCRTSESVEYFGTILIQWYQQKPGQPPKLLIFGASNVESGVPARFSGSGSGTDFSLNIHPVEEEDIAMYFCQQNRKVPYTFGGGTTLELKR | 563 | 0.000922 | 1640 |  |  |  |  |  |  |  |  | 
8 | S009-F1.62.9 (antibody, human IgG1, kappa, V domains shown, human-murine chimeric antibody, human IgG1/kappa constant regions) VH: EVQLQQSGADLVKPGASVKLSCTVFGLNFKDTFMHWVRQRPEQGLEWIGRIDPANDNSIYGPKFQDKATITADTSSNTAYLHLSSLTSEDTAVYYCLYFDNWGHGTTLTVSS VL: DIVMTQAASSEPVTPGESVSISCRSDKSLLHSNGHNYLYWFLQRPGQSPHLLIYRMSNLASGVPDRFSGSGSGTAFTLRISRVEAEDVGVYYCMQHLEYPLTFGAGTKLELKR | 745 | 0.000348 | 467 |  |  |  |  |  |  |  |  | 
9 | S009-F2-56.12 (antibody, human IgG1, kappa, V domains shown, Human-murine chimeric antibody, human IgG1/kappa constant regions) VH: DVQLQESGPGMVKPSQSLSLTCTVTGYSITSGYDWHWIRHFPGNKLEWMGYISYSGSTNYNPSLKSRISITHDTSKNHFFLKLKSVTTEDTATYYCARGTGPDYWGQGTTLTVSS VL: DIVMTQSQKFMSTSVGDRVSITCKASQNVRTAVAWYQQKPGQSPKALIHLPSNRHTGVPDRFTGSGSGTDFTLTISNVQSEDLADYFCLQHWNYPLTFGGGTKLEIKR |  |  |  | 0.06 | 0.07 | 0.16 | 0.37 | 0.41 | 0.37 | 0.4 | 0.07 | 
10 | S009-F2.16.10 (antibody, human IgG1, kappa, V domains shown, Human-murine chimeric antibody, human IgG1/kappa constant regions) VH: QVQLQQPGAELIKPGASVKLSCKASGYTFTSYWMHWVKQRPGQGLEWIGIIHPNIGSTNYNERFKSKATLTVDKSSSTAYMQLSSLTSEDSAVYYCARRSSNYGDWYFDVWGTGTTVTVSS VL: DIVMTQSHRFMSTSVGDRVSITCKASQDVGTSVAWYQQKPGQSPKLLIYWASTQHTGVPDRFTGSGSGTDFTLTINNVQSEDLLDYFCQQYSSYPLTFGAGTKLELKR |  |  |  | 0.05 | 0.09 | 0.41 | 1.71 | 2.22 | 2.4 | 2.92 | 0.06 | OD450 at 0.0001 nM [3]: 0.05 OD450; OD450 at 0.001 nM [3]: 0.06 OD450; OD450 at 0.01 nM [3]: 0.09 OD450; OD450 at 0.1 nM [3]: 0.44 OD450; OD450 at 1 nM [3]: 0.94 OD450; OD450 at 10 nM [3]: 1.62 OD450; OD450 at 100 nM [3]: 2.03 OD450; OD450 at none (no antibody) [3]: 0.06 OD450
11 | S009-F7.69.8 (antibody, human IgG1, kappa, V domains shown, human-murine chimeric antibody, human IgG1/kappa constant regions) VH: EVHLQQSGPELVKPGASVRIPCKASGYTFTDYNMDWVKQSHGKSLEWIGDINPDNGGTIYTQKFKGKATLTVDKSSSTAYMELRSLTSEDTAVYYCARRLHYYGSSGLDYWGQGTTLTVSS VL: DIQMTQSPASLSAYVGETVTITCRASGNIHNYLAWYQQKQGKSPQLLVYNAKTLADGVPSRFSGSGSGTQYSLKINSLQPEDFGSYYCQHFWSTVWTFGGGTKLEIKR |  |  |  |  |  |  |  |  |  |  |  | Kd [4]: 6.51 nM; koff [4]: 0.00447 s⁻¹; kon [4]: 687000 M⁻¹ s⁻¹
12 | S009-F2.13.3 (antibody, human IgG1, kappa, V domains shown, Human-murine chimeric antibody, human IgG1/kappa constant regions) VH: QVQLQQSGAELMKPGASVKLSCKATGYTFTGYWIEWVKQRPGHGLEWIGEILPGSGSTNYNEKFKGKATFTADTSSNTAYMQLSSLTTEDSAIYYCARAGAWFAYWGQGTLVTVSA VL: QIVLTQSPAIMSASLGERVTMTCTASSSVSSSYLHWYQQKPGSSPKLWTYSTSNLASGVPARFSGSGSGTSYSLTISSMEAEDAATYYCHQYHRSPWTFGGGTKLEIKR |  |  |  | 0.06 | 0.08 | 0.26 | 1.3 | 2.08 | 2.37 | 2.77 | 0.06 | OD450 at 0.0001 nM [3]: 0.05 OD450; OD450 at 0.001 nM [3]: 0.05 OD450; OD450 at 0.01 nM [3]: 0.05 OD450; OD450 at 0.1 nM [3]: 0.05 OD450; OD450 at 1 nM [3]: 0.05 OD450; OD450 at 10 nM [3]: 0.05 OD450; OD450 at 100 nM [3]: 0.06 OD450; OD450 at none (no antibody) [3]: 0.06 OD450
13 | S009-F2.17.3 (antibody, human IgG1, kappa, V domains shown, Human-murine chimeric antibody, human IgG1/kappa constant regions) VH: QVQLQQPGTELVTPGASVKLSCKASGYSFTSYWMHWVKQRPGQGLEWIGNINPSNGDTFYNEKFKNKATLTVDKSSSTAYMQLSSLTSEDSAVYYCARGWLRDYWGQGTTLTVSS VL: not shown |  |  |  | 0.05 | 0.06 | 0.13 | 0.64 | 1.93 | 2.48 | 2.81 | 0.06 | OD450 at 0.0001 nM [3]: 0.05 OD450; OD450 at 0.001 nM [3]: 0.05 OD450; OD450 at 0.01 nM [3]: 0.04 OD450; OD450 at 0.1 nM [3]: 0.05 OD450; OD450 at 1 nM [3]: 0.04 OD450; OD450 at 10 nM [3]: 0.06 OD450; OD450 at 100 nM [3]: 0.07 OD450; OD450 at none (no antibody) [3]: 0.06 OD450
14 | S009-F7.67.12 (antibody, human IgG1, kappa, V domains shown, human-murine chimeric antibody, human IgG1/kappa constant regions) VH: QVQLQQPGTELVKPGASVRLSCRASGYSFSSYWMHWVKQRPGQGLEWLGNINPTTGDINYNEKFRNRATLAVDKSSTTAYLQLTSLTSEDSAVYFCVRHDGFLWGQGTTLTVSS VL: DIQMTQSPASLSASVGETVTITCRASENIYSYLAWYQQKQGKSPQLLVYYAKTLAEGVSSRFSGSGSGTQFSLKINSLQPEDFGTYYCQHQFGTPRTFGGGTKLEIRR |  |  |  |  |  |  |  |  |  |  |  | Kd [4]: 0.602 nM; koff [4]: 0.00065 s⁻¹; kon [4]: 1.08e+06 M⁻¹ s⁻¹
15 | S009-F7.66.12 (antibody, human IgG1, kappa, V domains shown, human-murine chimeric antibody, human IgG1/kappa constant regions) VH: QIPLQQSGPELVKPGASVRISCKASDYAFSSSWMNWVKQRPEKGLEWIGRIFVESGNTHYNDKFNGKATLTADKSSRTAYIQLSSLTSEDSAVYFCTRENIFYHGHSSWFAYWGQGTLVTVSA VL: DIVLTQSPASLVVSLGQRATISCRAGESVDDFGISYVHWYQQKPGQPPKLLIYRAANLESGIPARFSGSGSRTDFTLTINPVETDDVAIYYCQQNNKDPFTFGSGTKLEIKR |  |  |  |  |  |  |  |  |  |  |  | Kd [4]: 13.1 nM; koff [4]: 0.00236 s⁻¹; kon [4]: 180000 M⁻¹ s⁻¹
